Measurements taken from patent US20230357407A1.

Target: huTIM-3 Fc (R&D; cat.no. 2365-TM) (human) (UniProt Q8TDQ0)
Assay: Galectin-9 blocking ELISA: coated Galectin-9 (competitor), 0.1875 ug/ml huTIM-3 Fc with negative control antibody; signal is huTIM-3 Fc bound

Chain of huTIM-3 Fc (R&D; cat.no. 2365-TM) (human) (Q8TDQ0 22-200 limits assumed): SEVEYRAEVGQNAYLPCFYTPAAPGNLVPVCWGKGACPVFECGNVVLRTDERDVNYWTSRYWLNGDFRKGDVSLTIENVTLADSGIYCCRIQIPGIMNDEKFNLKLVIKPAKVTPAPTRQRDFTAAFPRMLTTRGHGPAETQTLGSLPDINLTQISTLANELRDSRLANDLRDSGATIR

OD: 1.15 OD450
Substance: negative control antibody (Ctrl mAb)
